B1: Disabled homolog 2 (Mus musculus), P98078 (parent)
chain: MSNEVETSTTNGQPDQQAAPKAPSKKEKKKGSEKTDEYLLARFKGDGVKYKAKLIGIDDVPDARGDKMSQDSMMKLKGMAAAGRSQGQHKQRIWVNISLSGIKIIDEKTGVIEHEHPVNKISFIARDVTDNRAFGYVCGGEGQHQFFAIKTGQQAEPLVVDLKDLFQVIYNVKKKEEDKKKVEEANKAEENGSEALMTLDDQANKLKLGVDQMDLFGDMSTPPDLNSPTESKDILLVDLNSEIDTNQNSLRENPFLTNGVTSCSLPRPKPQASFLPENAFSANLNFFPTPNPDPFRDDPFAQPDQSAPSSFDSLTSPDQKKASLSSSSTPQSKGPLNGDTDYFGQQFDQLSNRTGKPEAQGGPWPYPSSQTQQAVRTQNGVSEREQNGFHIKSSPNPFVGSPPKGLSVPNGVKQDLESSVQSSAHDSIAIIPPPQSTKPGRGRRTAKSSANDLLASDIFASEPPGQMSPTGQPAVPQSNFLDLFKGNAPAPVGPLVGLGTVPVTPPQAGPWTPVVYSPSTTVVPGAIISGQPPSFRQPLVFGTTPAVQVWNQSPSFATPASPPPPTVWCPTTSVAPNAWSSTSPLGNPFQSNNIFPPPTMSTQSSPQPMMSSVLATPPQPPPRNGPLKDIPSDAFTGLDPLGDKEVKEVKEMFKDFQLRQPPLVPSRKGETPPSGTSSAFSSYFNNKVGIPQEHVDHDDFDANQLLNKINEPPKPAPRQGVLLGTKSADNSLENPFSKGFSSSNPSVVSQPASSDPHRSPFGNPFA
B2: Disabled homolog 1 (Mus musculus), P97318 (parent)
chain: MSTETELQVAVKTSAKKDSRKKGQDRSEATLIKRFKGEGVRYKAKLIGIDEVSAARGDKLCQDSMMKLKGVVAGARSKGEHKQKIFLTISFGGIKIFDEKTGALQHHHAVHEISYIAKDITDHRAFGYVCGKEGNHRFVAIKTAQAAEPVILDLRDLFQLIYELKQREELEKKAQKDKQCEQAVYQTILEEDVEDPVYQYIVFEAGHEPIRDPETEENIYQVPTSQKKEGVYDVPKSQPNSQPLEDFESRFAAATPNRNLSMDFDELLEATKVSAVTQLELFGDMSTPPDITSPPTPATPGDAFLPSSSQTLPGSADVFGSMSFGTAAVPSGYVAMGAVLPSFWGQQPLVQQQIAMGAQPPVAQVIPGAQPIAWGQPGLFPATQQAWPTVAGQFPPAAFMPTQTVMPLAAAMFQGPLTPLATVPGTNDSARSSPQSDKPRQKMGKESFKDFQMVQPPPVPSRKPDQPSLTCTSEAFSSYFNKVGVAQDTDDCDDFDISQLNLTPVTSTTPSTNSPPTPAPRQSSPSKSSASHVSDPTADDIFEEGFESPSKSEEQEAPDGSQASSTSDPFGEPSGEPSGDNISPQDGS

Variants of: B1
Conditions: with myo6_chick MYO6, Q9I8D1
Target sequence in this assay (Q9I8D1 whole entry): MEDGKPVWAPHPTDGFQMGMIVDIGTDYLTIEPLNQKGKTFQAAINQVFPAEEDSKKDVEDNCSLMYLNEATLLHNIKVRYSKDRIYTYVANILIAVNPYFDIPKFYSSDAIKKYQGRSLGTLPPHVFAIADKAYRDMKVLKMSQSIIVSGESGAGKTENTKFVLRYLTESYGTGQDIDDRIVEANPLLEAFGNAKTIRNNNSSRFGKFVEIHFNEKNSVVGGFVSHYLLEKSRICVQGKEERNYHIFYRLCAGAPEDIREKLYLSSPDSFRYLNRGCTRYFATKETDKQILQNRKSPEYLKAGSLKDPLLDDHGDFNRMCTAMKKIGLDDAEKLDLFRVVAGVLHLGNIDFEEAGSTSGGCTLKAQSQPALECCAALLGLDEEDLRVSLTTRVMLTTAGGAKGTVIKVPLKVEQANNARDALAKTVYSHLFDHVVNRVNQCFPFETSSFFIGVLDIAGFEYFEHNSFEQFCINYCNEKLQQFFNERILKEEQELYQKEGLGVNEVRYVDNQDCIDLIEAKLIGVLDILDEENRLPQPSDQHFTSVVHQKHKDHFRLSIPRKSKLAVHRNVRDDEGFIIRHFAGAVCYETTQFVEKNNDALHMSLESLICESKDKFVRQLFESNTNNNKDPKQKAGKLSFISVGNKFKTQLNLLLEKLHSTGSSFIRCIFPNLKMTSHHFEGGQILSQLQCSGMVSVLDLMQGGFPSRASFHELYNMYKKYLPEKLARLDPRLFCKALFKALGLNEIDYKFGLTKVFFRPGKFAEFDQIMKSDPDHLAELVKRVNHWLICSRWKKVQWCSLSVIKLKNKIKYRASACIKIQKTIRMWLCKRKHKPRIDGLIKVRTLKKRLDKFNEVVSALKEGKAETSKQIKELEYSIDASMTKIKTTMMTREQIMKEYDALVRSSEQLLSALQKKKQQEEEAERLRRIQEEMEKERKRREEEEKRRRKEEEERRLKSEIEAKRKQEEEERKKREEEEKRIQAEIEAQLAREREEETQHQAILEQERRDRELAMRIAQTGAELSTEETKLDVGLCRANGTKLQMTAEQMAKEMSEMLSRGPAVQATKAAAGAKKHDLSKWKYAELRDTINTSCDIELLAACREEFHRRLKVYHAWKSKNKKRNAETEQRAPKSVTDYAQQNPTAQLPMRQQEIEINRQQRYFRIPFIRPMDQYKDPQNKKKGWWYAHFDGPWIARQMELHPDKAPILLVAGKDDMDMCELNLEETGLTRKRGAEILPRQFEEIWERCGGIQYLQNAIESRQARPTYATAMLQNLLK

Variant | effect of a mutation on the interaction
D699A;F700A;D701A | decreasing interaction
S682A;Y683A;F684A | disrupting interaction

Variants of: B2
Conditions: with myo6_chick MYO6, Q9I8D1
Target sequence in this assay (Q9I8D1 whole entry): as above

Variant | effect of a mutation on the interaction
S478A;Y479A;F480A | decreasing interaction

Reference: IntAct's records for PubMed 11967127
